Values of other authors, collected in PMC3817581.

What was measured:
Conditions in all cases: not stated in this article
Asp27 = Asp27 (UniProt position 156, PLCGSDNKTYG)
Asp7 = Asp7 (UniProt position 136, AAVSVDCSEYP)
Glu10 = Glu10 (UniProt position 139, SVDCSEYPKPA)
Glu19 = Glu19 (UniProt position 148, PACTLEYRPLC)
Glu43 = Glu43 (UniProt position 172, CNAVVESNGTL)

## Turkey ovomucoid third domain (OMTKY3) (Meleagris gallopavo)
Asp27
  pKa: 2.2
Asp7
  pKa: 2.5
Glu10
  pKa: 4.1
Glu19
  pKa: 3.2
Glu43
  pKa: 4.8
